B1: MOR09124 Fab (Fab, V domains shown)
VH: QVQLVESGGGLVQPGGSLRLSCAASGFTFSSYWMTWVRQAPGKGLEWVSSIKIKPDGYAASVKGRFTISRDNSKNTLYLQMNSLRAEDTAVYYCARLFYQYFARMDYWGQGTLVTVSS
VL: DIQMTQSPSSLSASVGDRVTITCRASQDISNYLNWYQQKPGKAPKLLIYAASNLQSGVPSRFSGSGSGTDFTLTISSLQPEDFATYYCQQYDSYSPTFGQGTKVEIKR
notes: HCDR2-matured derivative of parental MOR08305
B2: MOR09612 IgG (antibody, V domains shown)
VH: EVQLVESGGGLVQPGGSLRLSCAASGFTFSSYWMTWVRQAPGKGLEWVSSIKIKPDGYAASVKGRFTISRDNSKNTLYLQMNSLRAEDTAVYYCARLFYQYFARMDYWGQGTLVTVSS
VL: DIQMTQSPSSLSASVGDRVTITCRASQDISNYLNWYQQKPGKAPKLLIYAASNLQSGVPSRFSGSGSGTDFTLTISSLQPEDFATYYCQQWDSFSPTFGQGTKVEIKR
notes: Germlined human IgG1 with leucines 234 and 235 changed to alanines, kappa; also called antibody 9612
B3: MOR09611 IgG (antibody, V domains shown)
VH: EVQLVESGGGLVQPGGSLRLSCAASGFTFSSYWMTWVRQAPGKGLEWVSSIKIKPDGYAASVKGRFTISRDNSKNTLYLQMNSLRAEDTAVYYCARLFYQYFARMDYWGQGTLVTVSS
VL: DIQMTQSPSSLSASVGDRVTITCRASQDISNYLNWYQQKPGKAPKLLIYAASNLQSGVPSRFSGSGSGTDFTLTISSLQPEDFATYYCQQHDTFRPTFGQGTKVEIKR
notes: Germlined human IgG1 with leucines 234 and 235 changed to alanines, kappa; also called antibody 9611
B4: MOR09423 Fab (Fab, V domains shown)
VH: QVQLVQSGAEVKKPGASVKVSCKASGYTFTGYYINWVRQAPGQGLEWMGIISPNQGTTGYAQKFQGRVTMTRDTSISTAYMELSSLRSEDTAVYYCARGNYDHLDYWGQGTLVTVSS
VL: DIQMTQSPSSLSASVGDRVTITCRASQGISNYLNWYQQKPGKAPKLLIYDASTLQSGVPSRFSGSGSGTDFTLTISSLQPEDFATYYCQQDWHTLPVTFGQGTKVEIKR
notes: also called Fab 9423

Tests used:
[1] = molecular target: T1, human complement C3b protein (human, UniProt P01024 23-667; P01024 749-1663); assay: cell-based or functional assay
[2] = molecular target: T2, cynomolgus complement C3b protein (cynomolgus monkey (Macaca fascicularis)); assay: cell-based or functional assay
human C3d [3] = molecular target: T3, human C3d (human, UniProt P01024 1002-1303); assay: cross reactivity, ELISA on C3d, anti-His detection
T3 construct: domain: C3d
Method: In order to determine whether the anti-C3b antibodies described herein can bind to complement pathway components iC3b and C3c, the following steps were performed: Directly add iC3b(complement Technologies A115), C3d (complement Technologies A117), or C3c (complement Technologies A116), at 2 μg/ml in Carbonate Buffer onto Coat Maxisorp plate Nunc (442404) at 100 μl per well. Seal plates and incubate at 4° C. overnight. Aspirate plates and wash 3 times with PBS/0.5% Tween 20. Block plates with Diluent (PBS, 4% BSA Fraction V (Fisher ICN16006980), 0.1% Tween 20 (Sigma P1379), 0.1% Triton X-100 (Sigma P234729)) and incubate for 2 h at room temperature or overnight at 4° C. Then wash plates once with PBS/0.5% Tween 20. Dilute Fabs at 100 nM and subsequent dilutions (or higher concentration if needed) in diluent and plate 100 μl per well. Incubate at room temperature for 1 h. Wash plates 3 times with PBS/0.5% Tween 20. Add 100 μl/well of anti-Histidine-HRP monoclonal detection antibody at 1:400 in diluent and incubate at room temperature for 1 h. Then wash 4 times with PBS/0.5% Tween 20. Add 100 μl of TMB substrate (Pierce 34028) and incubate at room temperature for up to 5 min. Add 50 μl of Stop solution (2N Sulfuric Acid) to each well and read plate at 450 nm and correct for plastic reading at 570 nm.

[4] = molecular target: T1, human complement C3b protein; assay: solution equilibrium titration (SET), ECL detection, Fab
[5] = molecular target: T2, cynomolgus complement C3b protein; assay: as above
[6] = molecular target: T1, human complement C3b protein; assay: SPR (Biacore), C3b captured by anti-C3d antibody, Fab as analyte
[7] = molecular target: T2, cynomolgus complement C3b protein; assay: as above
[8] = molecular target: T1, human complement C3b protein; assay: bead proximity assay, C3b-acceptor beads; competitor biotinylated fH
Method: (§1) For C3b-C3b and C3b-fP proximity, Fabs or IgGs respectively were pre-incubated with C3b-Acceptor beads (20 μg/ml) for 60 min at room temperature. C3b-Donor beads or fP-Donor beads (20 μg/ml) were then added, and the plate was incubated overnight at room temperature before reading. For C3b-fB and C3b-fH proximity, antibodies were pre-incubated with C3b-Acceptor beads (20 μg/ml) for 60 minutes at room temperature. Biotinylated fB(D24G/N260D) or fH were then added, and incubated for 60 minutes at room temperature. SA-Donor beads were then added (20 μg/ml) and the plate was incubated overnight at room temperature before reading. Plates were read on the BMG Pherastar (ex=680, em=520-620).

[9] = molecular target: T1, human complement C3b protein; assay: bead proximity assay, C3b-acceptor beads; competitor biotinylated fB(D24G/N260D)
Method: as §1

human C5 = molecular target: T4, human C5 (human, UniProt P01031 19-673; P01031 678-1676); assay: cross reactivity, capture ELISA with anti-C5 capture antibody, anti-His detection
T4 construct: Captured by an anti-C5 antibody in the ELISA

[10] = molecular target: T1, human complement C3b protein; assay: cell-based or functional assay; remark: listed apart in the source
[11] = molecular target: T1, human complement C3b protein; assay: ELISA, C3b or C3 captured by anti-C3d antibody
Method: The C3b antibodies were examined to determine whether they were selective for binding to C3b relative to the C3b precursor C3. Briefly, binding selectivity for C3b was determined by performing the following steps. Coat Maxisorp plate Nunc (442404) with anti-C3d rabbit monoclonal (abcam 17453) at 2 μg/ml in Carbonate Buffer at 100 μl/well. Seal plates and incubate at 4° C. overnight. Aspirate plates and wash 3 times with PBS/0.5% Tween 20. Block plates with Diluent (PBS, 4% BSA Fraction V (Fisher ICN16006980), 0.1% Tween 20 (Sigma P1379), 0.1% Triton X-100 (Sigma P234729)) and incubate for 2 h at room temperature or overnight at 4° C. Then wash plates once with PBS/0.5% Tween 20. Dilute purified C3b (complement technologies A114 lot 21) and C3 (complement technologies A113c) at 1 μg/ml in diluent and plate 100 μl per well. Incubate for 1 h at room temperature. Then wash 3 times with PBS/0.5% Tween 20.
Dilute Fabs at 100 nM and subsequent dilutions (or higher concentration) in diluent and plate 100 μl per well. Incubate at room temperature for 1 h. Wash plates 3 times with PBS/0.5% Tween 20. Add 100 μl/well of anti-Histidine-HRP monoclonal detection antibody at 1:400 in diluent and incubate at room temperature for 1 h. Then wash 4 times with PBS/0.5% Tween 20. Add 100 μl of TMB substrate (Pierce 34028) and incubate at room temperature for up to 5 min. Add 50 μl of Stop solution (2N Sulfuric Acid) to each well and read plate at 450 nm and correct for plastic reading at 570 nm.

human C3d [12] = molecular target: T3, human C3d; assay: C3d binding ELISA, IgG titrated from about 0.006 to 100 nM
[13] = molecular target: T1, human complement C3b protein; assay: SPR (Biacore T100), C3b captured by anti-C3d antibody, IgG as analyte, 1:1 model
[14] = molecular target: T2, cynomolgus complement C3b protein; assay: as above
[15] = molecular target: T1, human complement C3b protein; assay: AlphaScreen bead proximity, C3b-Acceptor beads pre-incubated with antibody, then biotinylated fH and SA-Donor beads; blocked ligand: fH [C]
Method: (§2) In brief, purified C3b and fP were conjugated to unconjugated acceptor or donor beads (PerkinElmer) using AminoLink Reductant (Pierce) during a 48 h incubation at room temperature. Beads were quenched using Carboxymethoxylamine Hemihydrochloride (Aldrich), and purified by centrifugation at 13000 rpm and three washes with 0.1M TBST. Purified fB(D24G/N260D) and fH were biotinylated during a 30 min incubation with 20-fold molar excess of NHS-Chromogenic-biotin (Pierce) at room temperature, and purified using Zeba 0.5 ml desalting columns (Pierce).
as §1

[16] = molecular target: T1, human complement C3b protein; assay: AlphaScreen bead proximity, C3b-Acceptor beads pre-incubated with antibody, then biotinylated fB(D24G/N260D) and SA-Donor beads; blocked ligand: fB [A]
Method: as §2, §1

[17] = molecular target: T1, human complement C3b protein; assay: AlphaScreen bead proximity, C3b-Acceptor beads pre-incubated with antibody, then C3b-Donor beads; inhibition of C3b-C3b dimer formation; unit from the axis [Antibody] nM [D]
Method: as §2, §1

T1 sequence (P01024 23-667 P314L, chain 1 of 2): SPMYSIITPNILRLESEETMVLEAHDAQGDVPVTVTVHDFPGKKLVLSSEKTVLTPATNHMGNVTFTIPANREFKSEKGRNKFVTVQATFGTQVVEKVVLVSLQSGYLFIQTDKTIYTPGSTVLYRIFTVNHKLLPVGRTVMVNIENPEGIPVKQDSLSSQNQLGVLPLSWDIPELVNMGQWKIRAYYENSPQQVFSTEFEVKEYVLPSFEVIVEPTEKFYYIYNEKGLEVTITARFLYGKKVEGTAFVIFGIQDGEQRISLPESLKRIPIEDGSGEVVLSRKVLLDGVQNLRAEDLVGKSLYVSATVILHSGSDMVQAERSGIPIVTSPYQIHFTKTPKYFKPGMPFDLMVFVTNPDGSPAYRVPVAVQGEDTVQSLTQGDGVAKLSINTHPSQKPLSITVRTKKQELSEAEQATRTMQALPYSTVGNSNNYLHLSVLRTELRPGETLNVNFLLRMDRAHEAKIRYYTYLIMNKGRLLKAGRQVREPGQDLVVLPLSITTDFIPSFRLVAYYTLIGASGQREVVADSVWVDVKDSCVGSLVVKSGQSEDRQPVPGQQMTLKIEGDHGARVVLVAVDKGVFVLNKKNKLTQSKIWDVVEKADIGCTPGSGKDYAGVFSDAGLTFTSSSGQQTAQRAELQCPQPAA
T1 sequence (P01024 749-1663, chain 2 of 2): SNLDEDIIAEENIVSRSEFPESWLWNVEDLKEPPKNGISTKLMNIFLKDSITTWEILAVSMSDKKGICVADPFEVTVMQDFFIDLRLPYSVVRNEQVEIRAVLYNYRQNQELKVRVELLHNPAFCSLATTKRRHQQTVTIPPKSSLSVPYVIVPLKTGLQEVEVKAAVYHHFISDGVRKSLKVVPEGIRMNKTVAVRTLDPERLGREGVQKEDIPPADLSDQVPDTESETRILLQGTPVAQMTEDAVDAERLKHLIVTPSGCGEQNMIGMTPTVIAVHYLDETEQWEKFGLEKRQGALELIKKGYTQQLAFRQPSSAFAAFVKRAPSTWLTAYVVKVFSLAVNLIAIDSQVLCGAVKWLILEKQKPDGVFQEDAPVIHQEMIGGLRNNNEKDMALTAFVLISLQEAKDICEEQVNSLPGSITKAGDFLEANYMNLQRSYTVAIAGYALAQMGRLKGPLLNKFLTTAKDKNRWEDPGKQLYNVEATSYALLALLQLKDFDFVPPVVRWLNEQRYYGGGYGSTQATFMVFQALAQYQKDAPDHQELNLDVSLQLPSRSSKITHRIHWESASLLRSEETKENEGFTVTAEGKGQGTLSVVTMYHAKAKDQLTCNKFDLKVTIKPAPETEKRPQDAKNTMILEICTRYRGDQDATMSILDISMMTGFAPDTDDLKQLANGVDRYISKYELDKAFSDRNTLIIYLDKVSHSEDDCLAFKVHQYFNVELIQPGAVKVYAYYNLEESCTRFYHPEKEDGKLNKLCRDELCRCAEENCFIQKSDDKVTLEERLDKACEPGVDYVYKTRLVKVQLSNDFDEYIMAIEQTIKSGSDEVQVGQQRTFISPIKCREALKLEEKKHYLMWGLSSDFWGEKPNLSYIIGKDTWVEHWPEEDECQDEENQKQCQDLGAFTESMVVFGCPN
T3 sequence (P01024 1002-1303 limits assumed): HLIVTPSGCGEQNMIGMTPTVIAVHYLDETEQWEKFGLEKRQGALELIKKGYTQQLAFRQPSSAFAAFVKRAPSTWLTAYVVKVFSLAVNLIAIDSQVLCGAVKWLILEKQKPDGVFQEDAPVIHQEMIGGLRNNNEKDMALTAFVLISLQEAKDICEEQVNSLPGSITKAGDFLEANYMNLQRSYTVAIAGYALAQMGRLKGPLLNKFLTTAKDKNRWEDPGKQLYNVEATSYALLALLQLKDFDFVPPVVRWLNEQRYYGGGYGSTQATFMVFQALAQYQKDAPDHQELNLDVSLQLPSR
T4 sequence (P01031 19-673 limits assumed, chain 1 of 2): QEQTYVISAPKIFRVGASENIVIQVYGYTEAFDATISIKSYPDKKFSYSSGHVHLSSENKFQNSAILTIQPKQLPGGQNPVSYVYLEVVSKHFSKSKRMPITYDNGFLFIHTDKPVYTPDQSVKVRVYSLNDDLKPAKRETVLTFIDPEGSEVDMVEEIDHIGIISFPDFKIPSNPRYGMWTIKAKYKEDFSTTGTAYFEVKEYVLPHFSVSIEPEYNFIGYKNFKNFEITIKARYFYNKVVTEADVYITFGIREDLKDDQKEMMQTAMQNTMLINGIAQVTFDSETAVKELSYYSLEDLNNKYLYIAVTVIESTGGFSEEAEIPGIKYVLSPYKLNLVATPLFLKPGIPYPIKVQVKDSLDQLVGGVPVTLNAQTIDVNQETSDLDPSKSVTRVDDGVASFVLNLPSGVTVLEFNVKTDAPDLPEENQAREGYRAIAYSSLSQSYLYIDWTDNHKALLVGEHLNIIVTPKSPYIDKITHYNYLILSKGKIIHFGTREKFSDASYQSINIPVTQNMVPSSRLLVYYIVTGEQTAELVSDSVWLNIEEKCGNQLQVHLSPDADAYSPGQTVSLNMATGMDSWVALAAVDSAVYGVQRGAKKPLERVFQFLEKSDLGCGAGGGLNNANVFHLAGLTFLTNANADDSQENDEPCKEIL
T4 sequence (P01031 678-1676 limits assumed, chain 2 of 2): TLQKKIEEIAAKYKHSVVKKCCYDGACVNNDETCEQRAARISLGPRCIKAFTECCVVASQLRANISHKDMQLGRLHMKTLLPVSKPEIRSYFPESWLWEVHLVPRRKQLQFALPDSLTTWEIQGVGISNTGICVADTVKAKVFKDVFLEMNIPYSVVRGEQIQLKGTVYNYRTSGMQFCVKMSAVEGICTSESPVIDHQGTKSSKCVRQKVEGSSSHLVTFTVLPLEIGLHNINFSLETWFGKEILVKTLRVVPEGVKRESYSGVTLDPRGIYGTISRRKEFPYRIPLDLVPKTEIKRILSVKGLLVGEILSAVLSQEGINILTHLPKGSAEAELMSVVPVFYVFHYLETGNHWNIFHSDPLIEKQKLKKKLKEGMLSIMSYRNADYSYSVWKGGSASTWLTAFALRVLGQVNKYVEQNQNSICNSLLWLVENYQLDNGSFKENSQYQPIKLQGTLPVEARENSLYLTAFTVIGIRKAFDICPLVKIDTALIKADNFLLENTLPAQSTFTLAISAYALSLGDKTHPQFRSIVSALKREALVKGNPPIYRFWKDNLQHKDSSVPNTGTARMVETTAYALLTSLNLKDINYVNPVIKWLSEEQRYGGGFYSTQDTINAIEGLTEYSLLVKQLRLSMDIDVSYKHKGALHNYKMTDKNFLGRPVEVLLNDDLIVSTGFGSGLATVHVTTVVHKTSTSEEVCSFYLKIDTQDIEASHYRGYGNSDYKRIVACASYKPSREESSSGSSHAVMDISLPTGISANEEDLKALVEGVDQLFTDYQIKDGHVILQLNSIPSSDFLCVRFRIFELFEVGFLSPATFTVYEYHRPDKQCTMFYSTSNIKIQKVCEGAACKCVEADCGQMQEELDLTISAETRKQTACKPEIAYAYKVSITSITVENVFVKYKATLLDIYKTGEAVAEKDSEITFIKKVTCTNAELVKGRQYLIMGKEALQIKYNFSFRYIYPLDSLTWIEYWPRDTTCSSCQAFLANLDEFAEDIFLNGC

| Binder | C3b Dep (nM), human serum, IC50 [1] [nM] | HA (nM), 10% human serum, IC50 [1] [nM] | MAC Dep (nM), human serum, IC50 [1] [nM] | C3b Dep (nM), cyno serum, IC50 [2] [nM] | HA (nM), 10% cyno serum, IC50 [2] [nM] | MAC Dep (nM), cyno serum, IC50 [2] [nM] | binding result (human C3d [3]) | Kd [4] [nM] | Kd [5] [nM] | Kd [6] [nM] | Kd [7] [nM] | IC50 [8] [nM] | IC50 [9] [nM] | binding result (human C5) | MAC deposition on zymosan, IC50 [10] [nM] | hemolysis of rabbit red blood cells, 10% human or cynomolgus serum, IC50 [10] [nM] | inhibition of C3a and C5a generation during hemolysis, IC50 [10] [nM] | fold binding selectivity for C3b over C3 [11] [fold] | binding result (human C3d [12]) | Kd [13] [nM] | other results |
| --- | --- | --- | --- | --- | --- | --- | --- | --- | --- | --- | --- | --- | --- | --- | --- | --- | --- | --- | --- | --- | --- |
| B1 | 16 | 44 | 1 | 73 | 101 | 5 | no binding | 0.001 | 0.021 | 0.007 | 0.033 | 1 | 3 | no binding | – | – | – | – | – | – | – |
| B2 | – | – | – | – | – | – | – | – | – | – | – | – | – | – | ≤ 5 | ≤ 50 | ≤ 50 | > 1000 | no binding (tested: 100 nM) | 0.00179 | koff [13]: 9.04e-06 s⁻¹; kon [13]: 5.05e+06 M⁻¹ s⁻¹; Kd [14]: 0.0253 nM; koff [14]: 8.67e-05 s⁻¹; kon [14]: 3.43e+06 M⁻¹ s⁻¹; IC50 (read off the curve) [15]: ~0.04 nM; IC50 (read off the curve) [16]: ~0.05 nM; EC50 [17]: 340 nM |
| B3 | – | – | – | – | – | – | – | – | – | – | – | – | – | – | ≤ 5 | ≤ 50 | ≤ 50 | > 1000 | no binding (tested: 100 nM) | 0.000435 | koff [13]: 3.1e-06 s⁻¹; kon [13]: 7.13e+06 M⁻¹ s⁻¹; Kd [14]: 0.0183 nM; koff [14]: 0.000128 s⁻¹; kon [14]: 6.97e+06 M⁻¹ s⁻¹; IC50 (read off the curve) [15]: ~0.04 nM; IC50 (read off the curve) [16]: ~0.05 nM; EC50 [17]: 605 nM |
| B4 | 14 | 48 | 1 | 66 | 83 | 4 | no binding | 0.1 | 0.34 | 0.075 | 0.486 | 0.08 | 0.2 | no binding | – | – | – | – | – | – | – |

From patent US20100291106A1 (Novartis, published 2010)
